# From patent publication US20230058519A1 (SHANGHAI CELL THERAPY GROUP, published 2023)
# T1: BCMA-His antigen (UniProt Q02223 1-54)
# T1 construct: also called BMCA antigen
# T1 sequence (looked up): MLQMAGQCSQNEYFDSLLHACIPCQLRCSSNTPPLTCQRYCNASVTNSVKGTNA
# T2: BCMA expressed on cells (UniProt Q02223 1-184, limits assumed)
# T2 construct: whole, on cells; also called CHOK1-BCMA cell line; BCMA over-expression cell line
# T2 sequence (looked up): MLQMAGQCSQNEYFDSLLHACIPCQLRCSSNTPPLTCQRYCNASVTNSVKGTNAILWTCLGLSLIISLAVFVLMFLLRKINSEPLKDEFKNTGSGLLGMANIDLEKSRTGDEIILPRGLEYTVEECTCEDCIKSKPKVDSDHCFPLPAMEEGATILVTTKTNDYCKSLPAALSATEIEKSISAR
# T3: CD19 expressed on cells (UniProt P15391 20-556, limits assumed)
# T3 construct: whole, on cells; also called CD19 over-expression cell line; CD19 over-expressing cells
# T3 sequence (looked up): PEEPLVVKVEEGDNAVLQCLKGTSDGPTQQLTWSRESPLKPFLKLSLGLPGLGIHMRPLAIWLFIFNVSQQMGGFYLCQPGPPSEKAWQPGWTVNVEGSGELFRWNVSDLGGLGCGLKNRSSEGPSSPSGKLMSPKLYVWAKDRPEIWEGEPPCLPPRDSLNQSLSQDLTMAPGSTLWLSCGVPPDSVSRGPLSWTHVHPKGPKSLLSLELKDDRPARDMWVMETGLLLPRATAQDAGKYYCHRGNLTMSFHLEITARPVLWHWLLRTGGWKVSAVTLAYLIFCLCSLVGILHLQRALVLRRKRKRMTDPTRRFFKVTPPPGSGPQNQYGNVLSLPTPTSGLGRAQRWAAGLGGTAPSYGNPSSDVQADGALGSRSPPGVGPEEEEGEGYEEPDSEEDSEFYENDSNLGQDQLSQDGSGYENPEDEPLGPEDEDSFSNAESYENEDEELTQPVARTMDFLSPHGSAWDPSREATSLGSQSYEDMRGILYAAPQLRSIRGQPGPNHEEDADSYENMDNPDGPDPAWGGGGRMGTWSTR
# How the values were obtained:
# [1] = molecular target: T1, BCMA-His antigen; assay: SPR, BCMA-his coupled on CM5 chip, TCP as analyte, 1:1 fit
# Description: First the binding affinity of the purified BCMA-TCPs against BMCA antigen was assessed by SPR. BCMA-his antigen was coupled onto a CM5 chip (GE Healthcare Life Sciences), and then a variety of anti-BCMA BsAbs were flowed at the flow rate of 10 uL/min with dissociation time of 900s. Binding kinetics were determined with a 1:1 fit model.
# [2] = molecular target: mesothelin (MSLN) expressed on cells (UniProt Q13421); assay: flow cytometry on 293T-MSLN+ cells; unit taken from the axis 'Conc.(nM)'
# [3] = molecular target: T4, MSLN-His antigen (UniProt Q13421 296-580, limits assumed); assay: SPR (Biacore), VHH-hFc captured on protein A chip, MSLN-His as analyte
# T4 construct: also called MSLN-His protein; MSLN antigen
# Description: The antibody was expressed as a hFc fusion protein, named as M2339(VHH) with the procedure that was described in the patent publication WO2020176815A2 (hereby incorporated by reference in its entirety and for all purposes). The binding affinity of M2339(VHH) towards MSLN antigen was tested by surface plasmon resonance (SPR). First, M2339(VHH) was passed through the sensor chip with protein A immobilized in advance, and the antibody was captured by protein A. Then, five different concentrations of MSLN-His protein were used as the mobile phase, and the binding time and dissociation time were 30 min and 60 min, respectively. Biacore evaluation software 2.0 (GE) was used to analyze the on-rate (kₒₙ), off-rate (koff) and equilibrium constant (KD).
# [4] = molecular target: mesothelin (MSLN) expressed on cells (UniProt Q13421); assay: flow cytometry on HEK293T-MSLN cells, serial dilution, anti-human IgG PE detection
# [5] = molecular target: T5, MSLN II + III - Fc (Homo sapiens (Human), UniProt Q13421 391-598); assay: SPR, MSLN domain-Fc captured on protein A chip, M2339 VHH-6his as analyte, 1:1 fit
# T5 construct: also called mesothelinII+III; mesothelinII+III domain; not shown: human Fc
# Description: (§1) Affinity was determined by SPR. Protein A chip was used to capture different antigens, various concentrations of M2339(VHH) were injected at a flow rate of 10 μl/min with an association time of 120 to 180 seconds and a dissociation time from 180 to 1200 seconds. Binding kinetics were determined using Biacore Evaluation software in a 1:1 fit model.
# [6] = molecular target: T6, MSLN Full - Fc (UniProt Q13421 296-598, limits assumed); assay: as above
# T6 construct: domain: MSLN Full (mesothelin ECD); also called mesothelin-full; complete mesothelin polypeptide; not shown: human Fc
# Description: as §1
# [7] = molecular target: T7, MSLN I - Fc (UniProt Q13421 296-390, limits assumed); assay: as above
# T7 construct: domain: MSLN I; also called mesothelinI; not shown: human Fc
# Description: as §1
# [8] = molecular target: T8, MSLN II - Fc (UniProt Q13421 391-486, limits assumed); assay: as above
# T8 construct: domain: MSLN II; not shown: human Fc
# Description: as §1
# [9] = molecular target: T9, MSLN I + II - Fc (UniProt Q13421 296-486, limits assumed); assay: as above
# T9 construct: domain: MSLN I + II; not shown: human Fc
# Description: as §1
# [10] = molecular target: T10, MSLN III - Fc (UniProt Q13421 487-598, limits assumed); assay: as above
# T10 construct: domain: MSLN III; not shown: human Fc
# Description: as §1
# [11] = molecular target: T2, BCMA expressed on cells; assay: flow cytometry on CHOK1-BCMA+ cells; unit taken from the axis 'Conc.(nM)'
# Description: The binding bioactivity for mesothelin and BCMA over-expressing cells was evaluated by flow cytometry. Stable cell lines were harvested using 0.25% Trypsin.
# About 5E5 cells were collected per sample, and the cells were resuspended in 100 μL/well tested antibodies with His-tag. Then the cells were incubated with anti-His-tag antibody (Genscript, China) and Streptavidin-PE (Biolegend, China). The incubation step of each step was performed at 4° C. in the dark for 1 hr, and then the cells were washed 2× with 200 μL PBS buffer. The washed cells were resuspended in 200 μL PBS buffer and the sample was analyzed by FACS.
# [12] = molecular target: T4, MSLN-His antigen; assay: SPR as in Example 2, MSLN His antigen
# [13] = molecular target: mesothelin (MSLN) expressed on cells (UniProt Q13421); assay: flow cytometry on HEK293T-MSLN cells, serial dilution
# [14] = molecular target: mesothelin (MSLN) expressed on cells (UniProt Q13421); assay: flow cytometry on 293T-MSLN-Full cells; unit taken from the axis 'Conc.(nM)'
# [15] = molecular target: T3, CD19 expressed on cells; assay: flow cytometry on CHO/K1-CD19 cells; unit taken from the axis 'Conc.(nM)'; the curve is still rising at the last point (MFI about 5000 at about 400 nM)
# T8 sequence (Q13421 other isoform, or with tags, fused parts or gaps limits assumed): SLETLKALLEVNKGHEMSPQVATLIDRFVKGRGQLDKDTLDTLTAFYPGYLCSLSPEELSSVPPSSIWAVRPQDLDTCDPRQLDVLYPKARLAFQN
# T9 sequence (Q13421 other isoform, or with tags, fused parts or gaps limits assumed): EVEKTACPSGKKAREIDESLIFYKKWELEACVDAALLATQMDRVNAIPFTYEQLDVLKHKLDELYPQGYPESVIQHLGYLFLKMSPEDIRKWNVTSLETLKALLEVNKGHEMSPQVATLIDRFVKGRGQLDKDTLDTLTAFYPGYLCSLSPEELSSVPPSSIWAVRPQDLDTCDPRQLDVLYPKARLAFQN
# T5 sequence (Q13421 other isoform, or with tags, fused parts or gaps limits assumed): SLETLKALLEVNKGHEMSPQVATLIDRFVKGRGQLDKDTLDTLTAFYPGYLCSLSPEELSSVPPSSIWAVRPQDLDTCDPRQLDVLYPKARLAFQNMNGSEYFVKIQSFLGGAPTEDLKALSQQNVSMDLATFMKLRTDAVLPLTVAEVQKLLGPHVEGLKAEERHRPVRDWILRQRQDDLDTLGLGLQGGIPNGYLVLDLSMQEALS
# T4 sequence (Q13421 other isoform, or with tags, fused parts or gaps limits assumed): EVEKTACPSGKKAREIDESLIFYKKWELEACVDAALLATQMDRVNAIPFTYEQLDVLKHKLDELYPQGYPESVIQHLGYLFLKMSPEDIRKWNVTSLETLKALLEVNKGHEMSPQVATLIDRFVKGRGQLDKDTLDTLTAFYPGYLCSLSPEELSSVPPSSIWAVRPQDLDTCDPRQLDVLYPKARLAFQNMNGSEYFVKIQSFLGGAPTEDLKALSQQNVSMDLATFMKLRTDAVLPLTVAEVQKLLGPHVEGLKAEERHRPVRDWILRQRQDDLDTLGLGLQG
# Sequence of mesothelin (MSLN) expressed on cells (Q13421 other isoform, or with tags, fused parts or gaps limits assumed): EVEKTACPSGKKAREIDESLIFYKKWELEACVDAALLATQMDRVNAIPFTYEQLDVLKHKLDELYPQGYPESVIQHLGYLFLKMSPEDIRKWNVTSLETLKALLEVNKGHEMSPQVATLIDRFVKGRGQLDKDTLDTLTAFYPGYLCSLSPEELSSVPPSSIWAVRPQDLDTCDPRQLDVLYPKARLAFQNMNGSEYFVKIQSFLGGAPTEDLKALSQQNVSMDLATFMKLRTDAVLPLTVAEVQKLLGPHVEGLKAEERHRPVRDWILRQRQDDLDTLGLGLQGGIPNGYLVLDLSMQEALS
# T10 sequence (Q13421 495-606 limits assumed): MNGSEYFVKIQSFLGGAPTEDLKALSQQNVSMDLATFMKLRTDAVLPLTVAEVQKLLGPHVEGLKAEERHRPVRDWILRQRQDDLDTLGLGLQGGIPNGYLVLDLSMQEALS
# T7 sequence (Q13421 296-390 limits assumed): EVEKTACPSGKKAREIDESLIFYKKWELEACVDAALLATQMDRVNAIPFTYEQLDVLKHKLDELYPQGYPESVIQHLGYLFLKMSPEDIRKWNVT
binder,measurement,setting,value
"TCP-MC (VHH, also called MC001C) VHH: QVQLVESGGGLVQPGGSLRLSCAASGSITSIYAIGWYRQAPGKLRELVAAITTSGNTFYRDSVKGRFTISRDNAKNTVSLQMNSLKSEDTAVYDCNGAPWGDHAPLVVSWDQGTQVTVSS",Kd,[1],0.138 nM
same,koff,[1],0.000546 s⁻¹
same,kon,[1],3.96e+06 M⁻¹ s⁻¹
"TCP001-P (bispecific antibody, Positive control in TCP format) QLQLGASGGGLVQPGGSLRLSCALSGFTLRELDEFAIGWFRQAPGKEREGVSCISGTGGITHYADSVKGRFTISRDIAKTTVYLQMNSLNSEDTAVYYCAADERCTDRLIRPPTYWGQGTQVTVSSGGGGSGGGGSGGGGSDIVLTQSPASLAMSLGERATISCRASESVSVIGAHLIHWYQQKPGQPPKLLIYLASNLETGVPARFSGSGSGTDFTLTISRVQAEDAAIYSCLQSRIFPRTFGQGTKLEIKGSTSGSGKPGSGEGSTKGQVQLVQSGSELKKPGESVKISCKASGYTFTDYSINWVKQAPGQGLKWMGWINTETREPAYAYDFRGRFVFSLDTSASTAYLQISSLKAEDTAVYFCALDYSYAMDYWGQGTLVTVSSGGGGSEQKLISEEDLGGGGSHHHHHH",Kd,[1],0.0151 nM
same,koff,[1],1.25e-05 s⁻¹
same,kon,[1],825000 M⁻¹ s⁻¹
TCP-MD (VHH) VHH: QLQLGASGGGLVQPGGSLRLSCALSGFTLRELDEFAIGWFRQAPGKEREGVSCISGTGGITHYADSVKGRFTISRDIAKTTVYLQMNSLNSEDTAVYYCAADERCTDRLIRPPTYWGQGTQVTVSS,EC50,[2],10.5 nM
"M2339(VHH), expressed as a hFc fusion protein (Fc fusion, VHH fused to human Fc; also called M2339-hFc; M2339-IgG1; not shown: human Fc (hFc)) QLQLGASGGGLVQPGGSLRLSCALSGFTLRELDEFAIGWFRQAPGKEREGVSCISGTGGITHYADSVKGRFTISRDIAKTTVYLQMNSLNSEDTAVYYCAADERCTDRLIRPPTYWGQGTQVTVSS",Kd,[3],0.264 nM
same,koff,[3],1.82e-05 s⁻¹
same,kon,[3],69000 M⁻¹ s⁻¹
same,EC50 (read off the curve),[4],4 nM
"M2339 VHH-6his (VHH, not shown: 6xHis tag) VHH: QLQLGASGGGLVQPGGSLRLSCALSGFTLRELDEFAIGWFRQAPGKEREGVSCISGTGGITHYADSVKGRFTISRDIAKTTVYLQMNSLNSEDTAVYYCAADERCTDRLIRPPTYWGQGTQVTVSS",Kd,[5],0.0432 nM
same,koff,[5],1.96e-05 s⁻¹
same,kon,[5],454000 M⁻¹ s⁻¹
same,Kd,[6],0.0165 nM
same,koff,[6],1.36e-05 s⁻¹
same,kon,[6],823000 M⁻¹ s⁻¹
same,Kd,[7],0.179 nM
same,koff,[7],6.49e-05 s⁻¹
same,kon,[7],363000 M⁻¹ s⁻¹
same,Kd,[8],0.999 nM
same,koff,[8],0.000244 s⁻¹
same,kon,[8],244000 M⁻¹ s⁻¹
same,Kd,[9],0.366 nM
same,koff,[9],0.000174 s⁻¹
same,kon,[9],476000 M⁻¹ s⁻¹
same,Kd,[10],0.327 nM
same,koff,[10],0.000185 s⁻¹
same,kon,[10],566000 M⁻¹ s⁻¹
"TCP003-C (bispecific antibody, also called TCP0031-C (as misprinted); BCMA-TCP) QLQLGASGGGLVQPGGSLRLSCALSGFTLRELDEFAIGWFRQAPGKEREGVSCISGTGGITHYADSVKGRFTISRDIAKTTVYLQMNSLNSEDTAVYYCAADERCTDRLIRPPTYWGQGTQVTVSSGGGGSAAAGQPREPQVYTLPPSQEEMTKNQVSLTCLVKGFYPSDIAVEWESNGQPENNYKTTPPVLDSDGSFFLYSRLTVDKSRWQEGNVFSCSVMHEALHNHYTQKSLSLSLGKGGGGSGGGGSGGGGSQVQLVESGGGLVQPGGSLRLSCAASGSITSIYAIGWYRQAPGKLRELVAAITTSGNTFYRDSVKGRFTISRDNAKNTVSLQMNSLKSEDTAVYDCNGAPWGDHAPLVVSWDQGTQVTVSSGGGGSEQKLISEEDLGGGGSHHHHHH",EC50,[2],4.32 nM
same,EC50,[11],22.3 nM
same,Kd,[1],7.04 nM
same,koff,[1],0.000298 s⁻¹
same,kon,[1],42300 M⁻¹ s⁻¹
"TCP001-C (bispecific antibody, also called BCMA-TCP) QLQLGASGGGLVQPGGSLRLSCALSGFTLRELDEFAIGWFRQAPGKEREGVSCISGTGGITHYADSVKGRFTISRDIAKTTVYLQMNSLNSEDTAVYYCAADERCTDRLIRPPTYWGQGTQVTVSSGGGGSGGGGSGGGGSQVQLVESGGGLVQPGGSLRLSCAASGSITSIYAIGWYRQAPGKLRELVAAITTSGNTFYRDSVKGRFTISRDNAKNTVSLQMNSLKSEDTAVYDCNGAPWGDHAPLVVSWDQGTQVTVSSGGGGSEQKLISEEDLGGGGSHHHHHH",EC50,[2],13.4 nM
same,EC50,[11],17.6 nM
same,Kd,[1],0.587 nM
same,koff,[1],0.000518 s⁻¹
same,kon,[1],882000 M⁻¹ s⁻¹
"anti-MSLN-1444 VHH (Fc fusion, not shown: a dimerising Fc or GST) QVQVVESGGGFVQAGGSLRLSCAASTPIISIAYMGWYRQISEKERQLVATINSGGKTYYADSVKGRFTISRDNAKNTLYLQMNMLKPEDTGMYYCAASNKDYNDYDPDWGQGTQVTVSS",Kd,[12],2.1 nM
same,koff,[12],7.5e-05 s⁻¹
same,kon,[12],53700 M⁻¹ s⁻¹
same,EC50 (read off the curve),[13],10 nM
"TCP011-P (bispecific antibody, also called CD19-TCP; anti-M-ICAP VHH (M2339) - 3xGGGGS linker - anti-CD19 scFv (FMC063) - Myc and HIS) QLQLGASGGGLVQPGGSLRLSCALSGFTLRELDEFAIGWFRQAPGKEREGVSCISGTGGITHYADSVKGRFTISRDIAKTTVYLQMNSLNSEDTAVYYCAADERCTDRLIRPPTYWGQGTQVTVSSGGGGSGGGGSGGGGSDIQMTQTTSSLSASLGDRVTISCRASQDISKYLNWYQQKPDGTVKLLIYHTSRLHSGVPSRFSGSGSGTDYSLTISNLEQEDIATYFCQQGNTLPYTFGGGTKLEITKAGGGGSGGGGSGGGGSEVKLQESGPGLVAPSQSLSVTCTVSGVSLPDYGVSWIRQPPRKGLEWLGVIWGSETTYYNSALKSRLTIIKDNSKSQVFLKMNSLQTDDTAIYYCAKHYYYGGSYAMDYWGQGTSVTVSSGGGGSEQKLISEEDLGGGGSHHHHHH",EC50,[14],17.1 nM
same,EC50,[15],40.9 nM
